This note sets out measurements from IntAct's records for PubMed 31515488.

First the molecules themselves.
B1: Tripartite motif-containing protein 10 (Homo sapiens), Q9UDY6 (parent)
chain: MASAASVTSLADEVNCPICQGTLREPVTIDCGHNFCRACLTRYCEIPGPDLEESPTCPLCKEPFRPGSFRPNWQLANVVENIERLQLVSTLGLGEEDVCQEHGEKIYFFCEDDEMQLCVVCREAGEHATHTMRFLEDAAAPYREQIHKCLKCLRKEREEIQEIQSRENKRMQVLLTQVSTKRQQVISEFAHLRKFLEEQQSILLAQLESQDGDILRQRDEFDLLVAGEICRFSALIEELEEKNERPARELLTDIRSTLIRCETRKCRKPVAVSPELGQRIRDFPQQALPLQREMKMFLEKLCFELDYEPAHISLDPQTSHPKLLLSEDHQRAQFSYKWQNSPDNPQRFDRATCVLAHTGITGGRHTWVVSIDLAHGGSCTVGVVSEDVQRKGELRLRPEEGVWAVRLAWGFVSALGSFPTRLTLKEQPRQVRVSLDYEVGWVTFTNAVTREPIYTFTASFTRKVIPFFGLWGRGSSFSLSS
B2: LHFPL tetraspan subfamily member 5 protein (Homo sapiens), Q8TAF8 (parent)
chain: MVKLLPAQEAAKIYHTNYVRNSRAVGVMWGTLTICFSVLVMALFIQPYWIGDSVNTPQAGYFGLFSYCVGNVLSSELICKGGPLDFSSIPSRAFKTAMFFVALGMFLIIGSIICFSLFFICNTATVYKICAWMQLAAATGLMIGCLVYPDGWDSSEVRRMCGEQTGKYTLGHCTIRWAFMLAILSIGDALILSFLAFVLGYRQDKLLPDDYKADGTEEV
partner: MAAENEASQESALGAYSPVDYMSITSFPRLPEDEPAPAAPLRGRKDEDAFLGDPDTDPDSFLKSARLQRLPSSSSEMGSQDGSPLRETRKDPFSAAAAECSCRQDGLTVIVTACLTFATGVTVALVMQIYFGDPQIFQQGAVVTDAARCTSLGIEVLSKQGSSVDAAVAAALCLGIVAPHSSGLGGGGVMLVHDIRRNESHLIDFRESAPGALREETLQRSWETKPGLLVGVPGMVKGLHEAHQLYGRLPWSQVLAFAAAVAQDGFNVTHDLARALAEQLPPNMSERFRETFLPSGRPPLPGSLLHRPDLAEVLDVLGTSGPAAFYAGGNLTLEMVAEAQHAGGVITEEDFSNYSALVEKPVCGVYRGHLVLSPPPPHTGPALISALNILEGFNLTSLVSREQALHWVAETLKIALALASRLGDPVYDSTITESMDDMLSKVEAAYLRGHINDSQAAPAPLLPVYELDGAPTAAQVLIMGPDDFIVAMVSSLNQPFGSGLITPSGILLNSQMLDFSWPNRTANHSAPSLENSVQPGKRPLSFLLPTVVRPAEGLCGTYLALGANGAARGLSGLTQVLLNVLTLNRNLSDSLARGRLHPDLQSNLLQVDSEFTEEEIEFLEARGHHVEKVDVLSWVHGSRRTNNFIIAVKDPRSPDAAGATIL
B3: U2 small nuclear ribonucleoprotein A' (Homo sapiens), P09661 (parent)
chain: MVKLTAELIEQAAQYTNAVRDRELDLRGYKIPVIENLGATLDQFDAIDFSDNEIRKLDGFPLLRRLKTLLVNNNRICRIGEGLDQALPCLTELILTNNSLVELGDLDPLASLKSLTYLSILRNPVTNKKHYRLYVIYKVPQVRVLDFQKVKLKERQEAEKMFKGKRGAQLAKDIARRSKTFNPGAGLPTDKKKGGPSPGDVEAIKNAIANASTLAEVERLKGLLQSGQIPGRERRSGPTDDGEEEMEEDTVTNGS
B4: Mothers against decapentaplegic homolog 4 (Homo sapiens), Q13485 (parent)
chain: MDNMSITNTPTSNDACLSIVHSLMCHRQGGESETFAKRAIESLVKKLKEKKDELDSLITAITTNGAHPSKCVTIQRTLDGRLQVAGRKGFPHVIYARLWRWPDLHKNELKHVKYCQYAFDLKCDSVCVNPYHYERVVSPGIDLSGLTLQSNAPSSMMVKDEYVHDFEGQPSLSTEGHSIQTIQHPPSNRASTETYSTPALLAPSESNATSTANFPNIPVASTSQPASILGGSHSEGLLQIASGPQPGQQQNGFTGQPATYHHNSTTTWTGSRTAPYTPNLPHHQNGHLQHHPPMPPHPGHYWPVHNELAFQPPISNHPAPEYWCSIAYFEMDVQVGETFKVPSSCPIVTVDGYVDPSGGDRFCLGQLSNVHRTEAIERARLHIGKGVQLECKGEGDVWVRCLSDHAVFVQSYYLDREAGRAPGDAVHKIYPSAYIKVFDLRQCHRQMQQQAATAQAAAAAQAAAVAGNIPGPGSVGGIAPAISLSAAAGIGVDDLRRLCILRMSFVKGWGPDYPRQSIKETPCWIEIHLHRALQLLDEVLHTMPIADPQPLD
B5: Arginine/serine-rich protein 1 (Homo sapiens), Q9BUV0 (parent)
chain: MSNYVNDMWPGSPQEKDSPSTSRSGGSSRLSSRSRSRSFSRSSRSHSRVSSRFSSRSRRSKSRSRSRRRHQRKYRRYSRSYSRSRSRSRSRRYRERRYGFTRRYYRSPSRYRSRSRSRSRSRGRSYCGRAYAIARGQRYYGFGRTVYPEEHSRWRDRSRTRSRSRTPFRLSEKDRMELLEIAKTNAAKALGTTNIDLPASLRTVPSAKETSRGIGVSSNGAKPELSEKVTEDGTRNPNEKPTQQRSIAFSSNNSVAKPIQKSAKAATEEASSRSPKIDQKKSPYGLWIPI
B6: 5'-AMP-activated protein kinase subunit beta-2 (Homo sapiens), O43741 (parent)
chain: MGNTTSDRVSGERHGAKAARSEGAGGHAPGKEHKIMVGSTDDPSVFSLPDSKLPGDKEFVSWQQDLEDSVKPTQQARPTVIRWSEGGKEVFISGSFNNWSTKIPLIKSHNDFVAILDLPEGEHQYKFFVDGQWVHDPSEPVVTSQLGTINNLIHVKKSDFEVFDALKLDSMESSETSCRDLSSSPPGPYGQEMYAFRSEERFKSPPILPPHLLQVILNKDTNISCDPALLPEPNHVMLNHLYALSIKDSVMVLSATHRYKKKYVTTLLYKPI
partner: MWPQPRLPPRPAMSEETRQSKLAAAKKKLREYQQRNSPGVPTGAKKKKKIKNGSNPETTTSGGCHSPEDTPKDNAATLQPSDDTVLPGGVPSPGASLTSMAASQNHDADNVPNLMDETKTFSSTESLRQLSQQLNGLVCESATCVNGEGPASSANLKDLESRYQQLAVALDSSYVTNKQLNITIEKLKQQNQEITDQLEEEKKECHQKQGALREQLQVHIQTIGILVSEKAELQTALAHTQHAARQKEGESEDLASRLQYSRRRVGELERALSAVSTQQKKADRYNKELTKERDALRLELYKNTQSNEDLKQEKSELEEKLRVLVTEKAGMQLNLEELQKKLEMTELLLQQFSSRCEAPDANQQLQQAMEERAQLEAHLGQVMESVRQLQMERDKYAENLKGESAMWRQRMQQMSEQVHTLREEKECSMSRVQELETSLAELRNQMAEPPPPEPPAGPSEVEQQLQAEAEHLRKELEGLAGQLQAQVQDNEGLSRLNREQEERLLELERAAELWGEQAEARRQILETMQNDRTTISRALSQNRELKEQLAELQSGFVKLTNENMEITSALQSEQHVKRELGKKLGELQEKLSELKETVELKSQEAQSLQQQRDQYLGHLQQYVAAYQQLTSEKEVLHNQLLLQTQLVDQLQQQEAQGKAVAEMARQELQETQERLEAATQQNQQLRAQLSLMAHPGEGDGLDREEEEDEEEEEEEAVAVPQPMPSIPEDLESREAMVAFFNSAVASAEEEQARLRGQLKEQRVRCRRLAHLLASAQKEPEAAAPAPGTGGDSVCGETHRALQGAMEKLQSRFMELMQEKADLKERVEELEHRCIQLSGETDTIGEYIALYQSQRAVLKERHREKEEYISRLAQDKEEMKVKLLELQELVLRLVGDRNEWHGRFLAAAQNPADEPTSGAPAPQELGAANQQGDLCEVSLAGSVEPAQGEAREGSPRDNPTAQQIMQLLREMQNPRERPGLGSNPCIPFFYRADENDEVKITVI
B7: Synaptotagmin-16 (Homo sapiens), Q17RD7 (parent)
chain: MVLAMASQDVQNFFQPFSSWISRVYEALQQAGDMLSASLVNISKQDSKLSDKLDQDLDNIQIQETYFEDEEQDNDWSQEDANSLFLEVDHFSCCNSDLQDSAQNSSPSLSQHAKDSCSTMSQWPNWASDDRKLPHVLSSIAEEEHHLEKQRSGLQHGFDSQLPGTLETVNGKKQVNSFGDDEELSTSSDSDEEVIKQFEISVSRSQSFRSVTSEKGKQTGLEQKPKFSRSLLTHGEDGTEVSACEDLDGASQRRYSENLSYGEDDHIPAHSQSPCERGDAKHHGTSHQESSVVQSLRRQSTEGSLEMETAFNSRGFEDSYATDSSSMWSPEEQDRTNLQVPSGVSEPISKCGDLDVIFEYRAASQKLTVTIVRAQGLPDKDRSGVNSWQVHVVLLPGKKHRGRTNIQRGPNPVFREKVTFAKLEPRDVAACAVRFRLYAARKMTRERMMGEKLFYLSHLHPEGEMKVTLVLEPRSNISSGGSPLSPSAVSHSDSTSSTQSLSHGGAPELLVGLSYNATTGRLSVEMIKGSHFRNLAVNRAPDTYGKLFLLNSVGQEMSRCKTSIRRGQPNPVYKETFVFQVALFQLSDVTLMISVYNRRTMKRKEMIGWIALGQNSSGEEEQDHWEEMKETKGQQICRWHTLLES

The variants in the first assay derive from B1. The note with it: with psa1_human PSMA1, P25786.
Chain of psa1_human PSMA1, P25786 (P25786 whole entry): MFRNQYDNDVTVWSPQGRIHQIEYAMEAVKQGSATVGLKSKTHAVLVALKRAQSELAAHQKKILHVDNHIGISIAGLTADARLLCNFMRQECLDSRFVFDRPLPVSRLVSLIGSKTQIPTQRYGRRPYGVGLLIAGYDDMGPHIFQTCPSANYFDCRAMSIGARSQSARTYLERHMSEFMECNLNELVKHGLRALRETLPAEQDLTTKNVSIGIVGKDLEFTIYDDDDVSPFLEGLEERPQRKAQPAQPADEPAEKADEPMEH
As to R65H, the “effect of a mutation on the interaction” value was “with no effect”.

In a further assay the parent is B2. The settings on record: with ggt7_human GGT7, Q9UJ14.
With K205N, the “effect of a mutation on the interaction” value was “with no effect”.

The variants in the next assay derive from B3. The settings on record: with ru2b_human SNRPB2, P08579.
Chain of ru2b_human SNRPB2, P08579 (P08579 whole entry): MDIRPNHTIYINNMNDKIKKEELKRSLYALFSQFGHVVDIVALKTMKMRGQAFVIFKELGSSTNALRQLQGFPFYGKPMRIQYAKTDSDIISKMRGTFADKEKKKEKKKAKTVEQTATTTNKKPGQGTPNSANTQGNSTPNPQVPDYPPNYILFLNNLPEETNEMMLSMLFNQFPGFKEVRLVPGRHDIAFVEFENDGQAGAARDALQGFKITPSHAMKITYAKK
Regarding P32S, the “effect of a mutation on the interaction” value was “with no effect”.
On the same count and under the same terms, in the case of S99N it was “with no effect”.

In the next assay the parent is B4. The settings on record: with smad9_human SMAD9, O15198.
Chain of smad9_human SMAD9, O15198 (O15198 whole entry): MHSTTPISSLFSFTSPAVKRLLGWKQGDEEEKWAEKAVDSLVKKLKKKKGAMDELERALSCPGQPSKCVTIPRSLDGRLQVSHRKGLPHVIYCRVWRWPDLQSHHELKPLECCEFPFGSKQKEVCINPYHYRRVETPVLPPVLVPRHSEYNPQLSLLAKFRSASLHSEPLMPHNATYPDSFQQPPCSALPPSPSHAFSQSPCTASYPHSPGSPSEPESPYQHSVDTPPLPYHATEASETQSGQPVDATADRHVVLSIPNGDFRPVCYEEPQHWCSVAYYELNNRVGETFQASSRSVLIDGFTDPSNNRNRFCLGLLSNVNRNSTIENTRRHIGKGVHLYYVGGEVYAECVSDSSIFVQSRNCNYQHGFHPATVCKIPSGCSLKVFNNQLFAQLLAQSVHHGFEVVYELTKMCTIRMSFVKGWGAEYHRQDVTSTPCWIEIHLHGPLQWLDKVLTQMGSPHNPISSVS
N13S: the “effect of a mutation on the interaction” value is on record as “with no effect”.
The same measure, in the same setting: in the case of C324R it was “disrupting interaction strength”; in that of E330K, “disrupting interaction strength”.

Variants of B4 are the subject of the next assay. The settings on record: with smad3_human SMAD3, P84022.
Chain of smad3_human SMAD3, P84022 (P84022 whole entry, looked up): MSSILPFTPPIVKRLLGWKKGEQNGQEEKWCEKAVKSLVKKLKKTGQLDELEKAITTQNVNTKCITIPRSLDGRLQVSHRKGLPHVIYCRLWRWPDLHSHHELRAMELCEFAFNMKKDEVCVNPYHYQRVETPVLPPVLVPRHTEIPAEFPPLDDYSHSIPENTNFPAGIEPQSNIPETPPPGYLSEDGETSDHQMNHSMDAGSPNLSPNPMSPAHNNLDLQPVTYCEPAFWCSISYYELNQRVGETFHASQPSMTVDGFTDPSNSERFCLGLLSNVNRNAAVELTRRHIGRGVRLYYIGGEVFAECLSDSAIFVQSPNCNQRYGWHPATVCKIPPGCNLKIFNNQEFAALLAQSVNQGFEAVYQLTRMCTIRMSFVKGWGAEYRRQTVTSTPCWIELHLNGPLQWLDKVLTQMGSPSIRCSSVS
For the variant N13S, the “effect of a mutation on the interaction” value was “with no effect”.
Same read-out and setting: in the case of C324R it was “disrupting interaction strength”.
In the case of E330K, the “effect of a mutation on the interaction” value is reported as “disrupting interaction strength”.

The variants in the next assay derive from B5. The note with it: with clk2_human CLK2, P49760.
Chain of clk2_human CLK2, P49760 (P49760 whole entry, looked up): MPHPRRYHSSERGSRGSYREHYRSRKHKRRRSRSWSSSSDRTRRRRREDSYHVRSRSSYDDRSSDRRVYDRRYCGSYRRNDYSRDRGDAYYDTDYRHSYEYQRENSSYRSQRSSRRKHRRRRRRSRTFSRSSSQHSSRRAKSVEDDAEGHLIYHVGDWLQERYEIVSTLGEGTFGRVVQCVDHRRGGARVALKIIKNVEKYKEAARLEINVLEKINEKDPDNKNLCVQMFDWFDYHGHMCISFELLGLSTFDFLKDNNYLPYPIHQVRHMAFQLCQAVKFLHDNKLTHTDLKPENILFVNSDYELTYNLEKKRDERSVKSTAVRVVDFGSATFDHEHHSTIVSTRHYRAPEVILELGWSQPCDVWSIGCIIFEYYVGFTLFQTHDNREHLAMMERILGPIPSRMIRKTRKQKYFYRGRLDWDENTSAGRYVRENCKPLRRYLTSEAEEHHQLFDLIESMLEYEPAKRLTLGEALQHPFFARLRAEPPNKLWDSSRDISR
On to V216A, for which the “effect of a mutation on the interaction” value is listed as “with no effect”.
Still for that read-out and setting: in the case of Y147H it was “with no effect”.
The same measure, in the same setting: the result for S20L reads “with no effect”.

The variants in the next assay derive from B5. The note with it: with clk3_human CLK3, P49761.
Chain of clk3_human CLK3, P49761 (P49761 whole entry, looked up): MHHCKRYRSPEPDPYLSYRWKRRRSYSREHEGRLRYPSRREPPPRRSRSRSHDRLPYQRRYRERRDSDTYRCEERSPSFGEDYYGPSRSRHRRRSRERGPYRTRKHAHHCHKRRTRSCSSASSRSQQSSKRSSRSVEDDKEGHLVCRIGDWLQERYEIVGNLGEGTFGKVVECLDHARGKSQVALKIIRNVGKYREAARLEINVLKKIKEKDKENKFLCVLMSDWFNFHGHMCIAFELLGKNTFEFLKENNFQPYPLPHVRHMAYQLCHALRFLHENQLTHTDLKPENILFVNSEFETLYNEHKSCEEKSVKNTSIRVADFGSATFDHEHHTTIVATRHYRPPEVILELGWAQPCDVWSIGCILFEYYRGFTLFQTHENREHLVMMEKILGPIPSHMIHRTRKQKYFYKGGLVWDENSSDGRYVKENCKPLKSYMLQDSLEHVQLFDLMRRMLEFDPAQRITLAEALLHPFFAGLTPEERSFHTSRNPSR
As for V216A, the “effect of a mutation on the interaction” value is listed as “with no effect”.
Still for that read-out and setting: the result for Y147H reads “with no effect”; that for S20L, “with no effect”.

Variants of B6 are the subject of the next assay. The note with it: with goga2_human GOLGA2, Q08379.
For G55E, the “effect of a mutation on the interaction” value is on record as “with no effect”.

The variants in the next assay derive from B7. The note with it: with praf1_human RABAC1, Q9UI14.
Chain of praf1_human RABAC1, Q9UI14 (Q9UI14 whole entry): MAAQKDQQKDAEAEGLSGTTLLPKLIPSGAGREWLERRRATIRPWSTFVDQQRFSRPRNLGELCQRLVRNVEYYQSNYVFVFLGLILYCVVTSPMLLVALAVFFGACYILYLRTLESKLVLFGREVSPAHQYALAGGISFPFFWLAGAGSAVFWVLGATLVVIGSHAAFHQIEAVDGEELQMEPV
For R131L, the “effect of a mutation on the interaction” value was “with no effect”.
Same read-out and setting: the result for A536T reads “with no effect”.

In a further assay the parent is B7. The note with it: with rtn4_human RTN4, Q9NQC3.
Chain of rtn4_human RTN4, Q9NQC3 (Q9NQC3 whole entry): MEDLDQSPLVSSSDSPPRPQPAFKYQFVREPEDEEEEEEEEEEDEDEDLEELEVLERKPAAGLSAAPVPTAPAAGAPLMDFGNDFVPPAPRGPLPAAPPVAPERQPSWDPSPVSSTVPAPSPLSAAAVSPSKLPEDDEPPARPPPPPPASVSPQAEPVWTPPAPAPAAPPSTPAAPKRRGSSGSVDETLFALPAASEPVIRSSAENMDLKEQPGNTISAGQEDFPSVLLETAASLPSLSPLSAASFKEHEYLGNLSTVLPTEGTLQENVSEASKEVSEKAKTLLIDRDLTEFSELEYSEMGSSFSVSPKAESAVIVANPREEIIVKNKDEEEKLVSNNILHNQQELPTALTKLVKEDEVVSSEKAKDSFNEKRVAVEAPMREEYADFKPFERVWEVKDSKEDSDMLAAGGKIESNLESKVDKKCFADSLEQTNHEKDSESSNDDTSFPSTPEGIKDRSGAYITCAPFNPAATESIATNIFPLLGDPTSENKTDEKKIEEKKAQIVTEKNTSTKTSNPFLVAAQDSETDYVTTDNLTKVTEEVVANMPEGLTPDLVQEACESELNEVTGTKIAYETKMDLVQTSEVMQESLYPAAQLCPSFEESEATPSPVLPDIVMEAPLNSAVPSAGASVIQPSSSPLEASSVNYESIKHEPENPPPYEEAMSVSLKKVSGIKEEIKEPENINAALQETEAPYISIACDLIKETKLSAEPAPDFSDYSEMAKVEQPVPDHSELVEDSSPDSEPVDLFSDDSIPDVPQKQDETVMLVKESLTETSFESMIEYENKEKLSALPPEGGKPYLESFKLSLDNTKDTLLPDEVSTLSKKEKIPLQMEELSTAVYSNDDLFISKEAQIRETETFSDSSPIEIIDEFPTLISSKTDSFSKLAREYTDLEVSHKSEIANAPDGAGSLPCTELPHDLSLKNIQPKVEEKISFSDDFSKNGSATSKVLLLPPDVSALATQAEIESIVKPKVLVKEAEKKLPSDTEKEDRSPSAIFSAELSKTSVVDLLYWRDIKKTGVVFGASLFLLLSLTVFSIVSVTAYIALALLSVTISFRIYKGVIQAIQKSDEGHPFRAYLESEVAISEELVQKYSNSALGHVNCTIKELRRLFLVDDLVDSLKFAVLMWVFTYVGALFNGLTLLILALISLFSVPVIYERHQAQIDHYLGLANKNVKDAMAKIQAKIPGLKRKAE
As for R131L, the “effect of a mutation on the interaction” value was “with no effect”.
A536T: the “effect of a mutation on the interaction” value is “with no effect”.

Variants of B7 are the subject of another assay. The note with it: with atrap_human AGTRAP.
R131L: the “effect of a mutation on the interaction” value is “with no effect”.
Same read-out and setting: the result for A536T reads “with no effect”.
